Measurements as given in US20030121063.

What was measured:
[1] = target: L1 ENp (L1 ORF2 endonuclease domain) (Homo sapiens) (UniProt O00370); experiment: cleavage_in_vitro; conditions: turnover number; Mg greatly preferred over Mn
[2] = test system: L1 ENp E43A E43A (Homo sapiens); experiment: cleavage_in_vitro; conditions: slightly leaky; 5 mM MgCl2

UniProt O00370, sequence (O00370 1-239): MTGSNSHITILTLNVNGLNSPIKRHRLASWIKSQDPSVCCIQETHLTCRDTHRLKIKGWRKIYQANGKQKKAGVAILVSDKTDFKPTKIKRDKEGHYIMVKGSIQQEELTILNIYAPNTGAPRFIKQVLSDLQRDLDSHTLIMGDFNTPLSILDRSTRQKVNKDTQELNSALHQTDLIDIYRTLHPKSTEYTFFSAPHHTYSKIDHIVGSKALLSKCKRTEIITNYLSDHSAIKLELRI

pBS plasmid, native
activity (phosphodiester bond cleavages per hour) [1]: 2
cleavage activity (fold less than wild type) [2]: 20
